Columns and labels:
[1] = tested on: H-NS (Edwardsiella piscicida EIB202); assay: competition EMSA; conditions: EMSA: 20 ng Cy5 probe, 20 mM Tris pH 8.0, 150 mM NaCl, 0.1 mM DTT, 0.1 mM EDTA, 200 ng poly(dI:dC), 25 C, 30 min; 10% PAGE in Tris-glycine at 4 C
[2] = tested on: H-NS K120ace (Edwardsiella piscicida EIB202); assay: competition EMSA; conditions: EMSA: 20 ng Cy5 probe, 20 mM Tris pH 8.0, 150 mM NaCl, 0.1 mM DTT, 0.1 mM EDTA, 200 ng poly(dI:dC), 25 C, 30 min; 10% PAGE in Tris-glycine at 4 C

PesrB (esrB promoter)
binding signal (% H-NS-bound DNA lost) [1]: 43
binding signal (% H-NS K120ace-bound DNA lost) [2]: 87

From article PMC10899749
